Test results from publication PMC9071441 (2022).

B1: mNeonGreen-tagged T-bet DNA binding domain (aa 135-326), wild type [mouse] / mTagBFP-tagged GATA3 DNA binding domain (aa 259-369) [not stated] (parent complex)
chain 1: KLRVALSNHLLWSKFNQHQTEMIITKQGRRMFPFLSFTVAGLEPTSHYRMFVDVVLVDQHHWRYQSGKWVQCGKAEGSMPGNRLYVHPDSPNTGAHWMRQEVSFGKLKLTNNKGASNNVTQMIVLQSLHKYQPRLHIVEVNDGEPEAACSASNTHVFTFQETQFIAVTAYQNAEITQLKIDNNPFAKGFREN
chain 2: not shown

Variants of: B1
Assay: flow-cytometric FRET; HEK293T cells; parent: 0.036; read off a plot

response [DFRET]	Variant
~-0.001	chain 1 R190W
~-0.004	chain 1 R29A, chain 1 R30A
~0.031	chain 1 Q126A
~-0.001	chain 1 I123E
~0.018	chain 1 K26A
~0.041	chain 1 K113L
~0.043	chain 1 E76A
~0.025	chain 1 V124W
